In patent EP2778173A1 (dated 2014):

Biological target: T1, recombinant EF produced in our laboratory (Bacillus anthracis, UniProt P40136 34-800)
T1 sequence: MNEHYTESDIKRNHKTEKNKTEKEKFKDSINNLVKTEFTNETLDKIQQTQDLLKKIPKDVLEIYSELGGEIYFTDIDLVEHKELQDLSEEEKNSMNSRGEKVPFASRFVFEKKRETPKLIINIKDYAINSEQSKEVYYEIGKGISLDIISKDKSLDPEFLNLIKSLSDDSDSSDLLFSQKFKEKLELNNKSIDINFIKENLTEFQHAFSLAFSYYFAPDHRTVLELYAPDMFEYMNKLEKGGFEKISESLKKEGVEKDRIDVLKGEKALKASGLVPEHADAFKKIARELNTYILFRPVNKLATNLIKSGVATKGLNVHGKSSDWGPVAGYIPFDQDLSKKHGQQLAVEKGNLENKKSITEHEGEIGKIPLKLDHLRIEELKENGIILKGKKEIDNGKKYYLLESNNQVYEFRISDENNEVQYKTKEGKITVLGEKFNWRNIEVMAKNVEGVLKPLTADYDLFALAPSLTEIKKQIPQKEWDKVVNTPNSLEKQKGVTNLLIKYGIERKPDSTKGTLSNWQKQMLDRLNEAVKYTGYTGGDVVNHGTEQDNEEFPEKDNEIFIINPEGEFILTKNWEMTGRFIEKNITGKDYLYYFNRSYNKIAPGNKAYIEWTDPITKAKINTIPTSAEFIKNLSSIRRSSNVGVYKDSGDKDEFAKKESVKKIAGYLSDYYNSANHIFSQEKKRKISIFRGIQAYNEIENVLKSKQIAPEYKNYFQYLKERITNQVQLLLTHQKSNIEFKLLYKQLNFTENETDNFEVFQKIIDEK
Experiment: SPR (Biacore X), scFv 2LF on CM5 chip, Native EF in solution; Table 2

B1: scFv 2LF (scFv, V domains shown)
VH: QVQLVESGGGVVQPGRSLRLSCAASGFAFDSTAMHWVRQAPGKGLEWVAVISTGGSTYYADSVKGRFTISRDNSNNTLYLQMNSLRAEDTAVYYCAKAVRGYIGSRGPLDVWGQGTMVTVSS
VL: DIQMTQSPSSVSASVGDRVTITCRASQGISSWLAWYQQKPGKAPKLLIYKASSLQSGVPSRFSGSGSGTDFTLTISSLQPEDFATYYCQQYSTSPITFGGGTKVEIK
  koff: 0.00051 s⁻¹
